Substitutions are numbered along the chain they refer to. Names may count otherwise.
T1: PUF4 RNA-binding domain (Saccharomyces cerevisiae, UniProt P25339 537-888)
T1 sequence: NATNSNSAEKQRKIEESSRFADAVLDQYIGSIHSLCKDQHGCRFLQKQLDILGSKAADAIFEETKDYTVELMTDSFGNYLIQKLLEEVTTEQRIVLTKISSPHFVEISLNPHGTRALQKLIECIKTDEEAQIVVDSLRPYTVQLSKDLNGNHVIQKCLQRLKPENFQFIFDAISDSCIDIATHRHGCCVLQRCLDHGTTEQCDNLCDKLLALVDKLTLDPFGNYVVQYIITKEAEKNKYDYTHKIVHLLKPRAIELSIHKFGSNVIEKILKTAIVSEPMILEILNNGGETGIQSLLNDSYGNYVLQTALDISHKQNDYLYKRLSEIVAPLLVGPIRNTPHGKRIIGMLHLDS

B1: Ic_S1_P3E.1_K3.1_C3.1_H3.1_A3.1_[T5C]_[A6T]_F3.1_[T7G]_[A8C]_T3.1 (ssRNA)
RNA: UCUCUUUGUACUGCUCUCUU
B2: Ic_S1_P3E.1_K3.1_C3.1_H3.1_A3.1_[T5C]_[A6T]_F3.1_[T7C]_[A8C]_T3.1 (ssRNA)
RNA: UCUCUUUGUACUCCUCUCUU
B3: Ic_S1_P3E.1_K3.1_C3.1_H3.1_A3.1_[T5C]_[A6T]_F3.1_[T7C]_[A8T]_T3.1 (ssRNA)
RNA: UCUCUUUGUACUCUUCUCUU
B4: Ic_S1_P3E.1_K3.1_C3.1_H3.1_A3.1_[T5C]_[A6T]_F3.1_[T7C]_T3.1 (ssRNA)
RNA: UCUCUUUGUACUCAUCUCUU
B5: Ic_S1_P3E.1_K3.1_C3.1_H3.1_A3.1_[T5C]_[A6T]_F3.1_[T7A]_[A8G]_T3.1 (ssRNA)
RNA: UCUCUUUGUACUAGUCUCUU
B6: Ic_S1_P3E.1_K3.1_C3.1_H3.1_A3.1_[T5C]_[A6T]_F3.1_[T7A]_[A8C]_T3.1 (ssRNA)
RNA: UCUCUUUGUACUACUCUCUU
B7: Ia_S4_P5E.1_K5.1_C5.1_H5.1_[T1A]_A5.1_F5.1_T5.1 (ssRNA)
RNA: UUUGACAACUGAUCGUUCUUUCUAGUAUUAUUAUUCUUUCUCGAUCAGUUGUCUUU
B8: Ic_S1_P3E.1_K3.1_C3.1_H3.1_A3.1_[T5C]_[A6T]_F3.1_[T7A]_[A8T]_T3.1 (ssRNA)
RNA: UCUCUUUGUACUAUUCUCUU
B9: Ic_S1_P3E.1_K3.1_C3.1_H3.1_A3.1_[T5C]_[A6T]_F3.1_[T7A]_T3.1 (ssRNA)
RNA: UCUCUUUGUACUAAUCUCUU
B10: Ic_S1_P3E.1_K3.1_C3.1_H3.1_A3.1_[T5C]_[A6T]_F3.1_[A8G]_T3.1 (ssRNA)
RNA: UCUCUUUGUACUUGUCUCUU
B11: Ic_S1_P3E.1_K3.1_C3.1_H3.1_A3.1_[T5C]_[A6T]_F3.1_[A8C]_T3.1 (ssRNA)
RNA: UCUCUUUGUACUUCUCUCUU
B12: Ic_S1_P3E.1_K3.1_C3.1_H3.1_A3.1_[T5C]_[A6T]_F3.1_[A8T]_T3.1 (ssRNA)
RNA: UCUCUUUGUACUUUUCUCUU
B13: Ic_S1_P3E.1_K3.1_C3.1_H3.1_A3.1_[T5C]_F3.1_[T7G]_[A8C]_T3.1 (ssRNA)
RNA: UCUCUUUGUACAGCUCUCUU
B14: Ic_S1_P3E.1_K3.1_C3.1_H3.1_A3.1_[T5C]_F3.1_[T7C]_[A8G]_T3.1 (ssRNA)
RNA: UCUCUUUGUACACGUCUCUU
B15: Ic_S1_P3E.1_K3.1_C3.1_H3.1_A3.1_[T5C]_F3.1_[T7C]_[A8C]_T3.1 (ssRNA)
RNA: UCUCUUUGUACACCUCUCUU
B16: Ic_S1_P3E.1_K3.1_C3.1_H3.1_A3.1_[T5C]_F3.1_[T7C]_[A8T]_T3.1 (ssRNA)
RNA: UCUCUUUGUACACUUCUCUU
B17: Ic_S1_P3E.1_K3.1_C3.1_H3.1_A3.1_[T5C]_F3.1_[T7A]_[A8G]_T3.1 (ssRNA)
RNA: UCUCUUUGUACAAGUCUCUU
B18: Ia_S4_P5E.1_K5.1_C5.1_H5.1_[A4C]_A5.1_F5.1_T5.1 (ssRNA)
RNA: B7 RNA with A24U, A27C
B19: Ic_S1_P3E.1_K3.1_C3.1_H3.1_A3.1_[T5C]_F3.1_[T7A]_[A8C]_T3.1 (ssRNA)
RNA: UCUCUUUGUACAACUCUCUU
B20: Ic_S1_P3E.1_K3.1_C3.1_H3.1_A3.1_[T5C]_F3.1_[T7A]_[A8T]_T3.1 (ssRNA)
RNA: UCUCUUUGUACAAUUCUCUU
B21: Ic_S1_P3E.1_K3.1_C3.1_H3.1_A3.1_[T5A]_[A6G]_F3.1_[T7C]_[A8G]_T3.1 (ssRNA)
RNA: UCUCUUUGUAAGCGUCUCUU
B22: Ic_S1_P3E.1_K3.1_C3.1_H3.1_A3.1_[T5A]_[A6G]_F3.1_[T7C]_[A8C]_T3.1 (ssRNA)
RNA: UCUCUUUGUAAGCCUCUCUU
B23: Ic_S1_P3E.1_K3.1_C3.1_H3.1_A3.1_[T5A]_[A6G]_F3.1_[T7C]_[A8T]_T3.1 (ssRNA)
RNA: UCUCUUUGUAAGCUUCUCUU
B24: Ic_S1_P3E.1_K3.1_C3.1_H3.1_A3.1_[T5A]_[A6G]_F3.1_[T7C]_T3.1 (ssRNA)
RNA: UCUCUUUGUAAGCAUCUCUU
B25: Ic_S1_P3E.1_K3.1_C3.1_H3.1_A3.1_[T5A]_[A6G]_F3.1_[A8G]_T3.1 (ssRNA)
RNA: UCUCUUUGUAAGUGUCUCUU
B26: Ic_S1_P3E.1_K3.1_C3.1_H3.1_A3.1_[T5A]_[A6G]_F3.1_[A8T]_T3.1 (ssRNA)
RNA: UCUCUUUGUAAGUUUCUCUU
B27: Ic_S1_P3E.1_K3.1_C3.1_H3.1_A3.1_[T5A]_[A6C]_F3.1_[T7G]_[A8G]_T3.1 (ssRNA)
RNA: UCUCUUUGUAACGGUCUCUU
B28: Ic_S1_P3E.1_K3.1_C3.1_H3.1_A3.1_[T5A]_[A6C]_F3.1_[T7G]_[A8C]_T3.1 (ssRNA)
RNA: UCUCUUUGUAACGCUCUCUU
B29: Ia_S4_P5E.1_K5.1_C5.1_H5.1_A5.1_[T5C]_F5.1_T5.1 (ssRNA)
RNA: B7 RNA with A24U, U28C
B30: Ic_S1_P3E.1_K3.1_C3.1_H3.1_A3.1_[T5A]_[A6C]_F3.1_[T7G]_[A8T]_T3.1 (ssRNA)
RNA: UCUCUUUGUAACGUUCUCUU
B31: Ic_S1_P3E.1_K3.1_C3.1_H3.1_A3.1_[T5A]_[A6C]_F3.1_[T7C]_[A8C]_T3.1 (ssRNA)
RNA: UCUCUUUGUAACCCUCUCUU
B32: Ic_S1_P3E.1_K3.1_C3.1_H3.1_A3.1_[T5A]_[A6C]_F3.1_[T7C]_[A8T]_T3.1 (ssRNA)
RNA: UCUCUUUGUAACCUUCUCUU
B33: Ic_S1_P3E.1_K3.1_C3.1_H3.1_A3.1_[T5A]_[A6C]_F3.1_[T7C]_T3.1 (ssRNA)
RNA: UCUCUUUGUAACCAUCUCUU
B34: Ic_S1_P3E.1_K3.1_C3.1_H3.1_A3.1_[T5A]_[A6C]_F3.1_[T7A]_[A8G]_T3.1 (ssRNA)
RNA: UCUCUUUGUAACAGUCUCUU
B35: Ic_S1_P3E.1_K3.1_C3.1_H3.1_A3.1_[T5A]_[A6C]_F3.1_[T7A]_[A8C]_T3.1 (ssRNA)
RNA: UCUCUUUGUAACACUCUCUU
B36: Ic_S1_P3E.1_K3.1_C3.1_H3.1_A3.1_[T5A]_[A6C]_F3.1_[T7A]_[A8T]_T3.1 (ssRNA)
RNA: UCUCUUUGUAACAUUCUCUU
B37: Ic_S1_P3E.1_K3.1_C3.1_H3.1_A3.1_[T5A]_[A6C]_F3.1_[T7A]_T3.1 (ssRNA)
RNA: UCUCUUUGUAACAAUCUCUU
B38: Ic_S1_P3E.1_K3.1_C3.1_H3.1_A3.1_[T5A]_[A6C]_F3.1_[A8G]_T3.1 (ssRNA)
RNA: UCUCUUUGUAACUGUCUCUU
B39: Ic_S1_P3E.1_K3.1_C3.1_H3.1_A3.1_[T5A]_[A6C]_F3.1_[A8C]_T3.1 (ssRNA)
RNA: UCUCUUUGUAACUCUCUCUU
B40: Ic_S1_P3E.1_K3.1_C3.1_H3.1_A3.1_[T5C]_F3.1_T3.1 (ssRNA)
RNA: UCUCUUUGUACAUAUCUCUU
B41: Ia_S4_P5E.1_K5.1_C5.1_H5.1_A5.1_[T6C]_F5.1_T5.1 (ssRNA)
RNA: B7 RNA with A24U, U29C
B42: Ic_S1_P3E.1_K3.1_C3.1_H3.1_A3.1_[T5A]_[A6C]_F3.1_[A8T]_T3.1 (ssRNA)
RNA: UCUCUUUGUAACUUUCUCUU
B43: Ic_S1_P3E.1_K3.1_C3.1_H3.1_A3.1_[T5A]_[A6T]_F3.1_[T7G]_[A8G]_T3.1 (ssRNA)
RNA: UCUCUUUGUAAUGGUCUCUU
B44: Ic_S1_P3E.1_K3.1_C3.1_H3.1_A3.1_[T5A]_[A6T]_F3.1_[T7G]_[A8T]_T3.1 (ssRNA)
RNA: UCUCUUUGUAAUGUUCUCUU
B45: Ic_S1_P3E.1_K3.1_C3.1_H3.1_A3.1_[T5A]_[A6T]_F3.1_[T7C]_[A8G]_T3.1 (ssRNA)
RNA: UCUCUUUGUAAUCGUCUCUU
B46: Ic_S1_P3E.1_K3.1_C3.1_H3.1_A3.1_[T5A]_[A6T]_F3.1_[T7C]_[A8C]_T3.1 (ssRNA)
RNA: UCUCUUUGUAAUCCUCUCUU
B47: Ic_S1_P3E.1_K3.1_C3.1_H3.1_A3.1_[T5A]_[A6T]_F3.1_[T7C]_[A8T]_T3.1 (ssRNA)
RNA: UCUCUUUGUAAUCUUCUCUU
B48: Ic_S1_P3E.1_K3.1_C3.1_H3.1_A3.1_[T5A]_[A6T]_F3.1_[T7C]_T3.1 (ssRNA)
RNA: UCUCUUUGUAAUCAUCUCUU
B49: Ic_S1_P3E.1_K3.1_C3.1_H3.1_A3.1_[T5A]_[A6T]_F3.1_[T7A]_[A8G]_T3.1 (ssRNA)
RNA: UCUCUUUGUAAUAGUCUCUU
B50: Ic_S1_P3E.1_K3.1_C3.1_H3.1_A3.1_[T5A]_[A6T]_F3.1_[T7A]_[A8C]_T3.1 (ssRNA)
RNA: UCUCUUUGUAAUACUCUCUU

Target: T1, PUF4 RNA-binding domain
Assay: Mg; RNA-MaP; 20 mM Na-HEPES pH 7.4, 30 mM KOAc, 0.75 mM MgCl2, 0.1% Tween-20, 5% glycerol, 0.1 mg/mL BSA, 2 mM DTT; 25 C; 0.0125-409.6 nM protein
Conditions: tags: N-His6-TEV cleaved; C-SNAP kept, Cy3B-labelled; label: tethered on chip by stalled RNA polymerase

Row | Binder | Kd [nM]
1 | B1 | 842
2 | B2 | 384
3 | B3 | 44.3
4 | B4 | 445
5 | B5 | 524
6 | B6 | 349
7 | B7 | > 2300
8 | B8 | 9.51
9 | B9 | 77.4
10 | B10 | 112
11 | B11 | 190
12 | B12 | 19.5
13 | B13 | 76.7
14 | B14 | 27.2
15 | B15 | 41.8
16 | B16 | 9.72
17 | B17 | 704
18 | B18 | 13.1
19 | B19 | 50.4
20 | B20 | 11.1
21 | B21 | 1910
22 | B22 | 1550
23 | B23 | 653
24 | B24 | > 2300
25 | B25 | 1820

Row | Binder | Kd [nM]
26 | B26 | 709
27 | B27 | > 2300
28 | B28 | 996
29 | B29 | 2.21
30 | B30 | 534
31 | B31 | 975
32 | B32 | 81
33 | B33 | 959
34 | B34 | 491
35 | B35 | 531
36 | B36 | 15
37 | B37 | 99.3
38 | B38 | 389
39 | B39 | 373
40 | B40 | 5.88
41 | B41 | 2.73
42 | B42 | 57.1
43 | B43 | 2030
44 | B44 | 329
45 | B45 | 867
46 | B46 | 812
47 | B47 | 70.2
48 | B48 | 758
49 | B49 | 645
50 | B50 | 560
